The values below come from the supplement of paper PMC5998384.

Data set [1] has as its system HeLa Kyoto. Nature of the data set: solubility change mitosis vs G1/S (difference of NP-40 vs SDS log2 ratios) (log2 ratio difference); higher = more soluble in mitosis.
Data set [2] deals with HeLa Kyoto. Description: melting temperature (median over replicates), in situ; higher = more thermally stable.
Data set [3] concerns HeLa Kyoto. Description: solubility in G1/S (NP-40 vs SDS abundance) (log2 ratio); higher = more soluble. Particulars: cell cycle stage: G1/S.
Data set [4] deals with HeLa Kyoto. Description: thermal stability score vs G1/S (z-score of summed log2 fold changes over temperatures); higher = more thermally stable than in G1/S.
[5] abbreviates: cell cycle stage: early G1 (4.5 h after nocodazole release).
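Throughout, for melting temperature (median over replicates), in situ: HeLa Kyoto cells synchronized by double thymidine or nocodazole block, proteins quantified by TMT10plex mass spectrometry, three independent biological replicates.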
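Throughout, for solubility change mitosis vs G1/S (difference of NP-40 vs SDS log2 ratios): synchronized HeLa Kyoto cells (double thymidine block for G1/S, nocodazole release for mitosis), protein amounts in NP-40 versus SDS lysates quantified by mass spectrometry, three biological replicates.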
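Throughout, for solubility in G1/S (NP-40 vs SDS abundance): HeLa Kyoto cells arrested at G1/S by double thymidine block, proteins quantified by TMT10plex mass spectrometry in mild NP-40 versus SDS extracts, three biological replicates.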
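Throughout, for thermal stability score vs G1/S (z-score of summed log2 fold changes over temperatures): synchronized HeLa Kyoto cells, proteins quantified by TMT10plex mass spectrometry, three biological replicates, mitosis taken 0.5 h after nocodazole release, G1/S directly after double thymidine block.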

Consider “MAFANLRKVLISDSLDPCCRKILQDGGLQVVEKQNLSKEELIAELQDCEGLIVRSATKVTADVINAAEKLQVVGRAGTGVDNVDLEAATRKGILVMNTPNGNSLSAAELTCGMIMCLARQIPQATASMKDGKWERKKFMGTELNGKTLGILGLGRIGREVATRMQSFGMKTIGYDPIISPEVSASFGVQQLPLEEIWPLCDFITVHTPLLPSTTGLLNDNTFAQCKKGVRVVNCARGGIVDEGALLRALQSGQCAGAALDVFTEEPPRDRALVDHENVISCPHLGASTKEAQSRCGEEIAVQFVDMVKGKSLTGVVNAQALTSAFSPHTKPWIGLAEALGTLMRAWAGSPKGTIQVITQGTSLKNAGNCLSPAVIVGLLKEASKQADVNLVNAKLLVKEAGLNVTTSHSPAAPGEQGFGECLLAVALAGAPYQAVGLVQGTTPVLQGLNGAVFRPEVPLRRDLPLLLFRTQTSDPAMLPTMIGLLAEAGVRLLSYQTSLVSDGETWHVMGISSLLPSLEAWKQHVTEAFQFHF [PHGDH]”, for which, in the data set on HeLa Kyoto [1], the “solubility change mitosis (log2)” value was 0.0444. The melting temperature in the data set with HeLa Kyoto [2] (cell cycle stage: G1/S) is 55.9 °C; with HeLa Kyoto [2] (cell cycle stage: mitosis) it was 55.4 °C. Moreover, the “solubility in G1/S (log2)” value in the data set on HeLa Kyoto [3] came to 0.233. Besides, the thermal stability score with HeLa Kyoto [4] (setting [5]) was -2.03; in the data set on HeLa Kyoto [4] (cell cycle stage: mitosis) it was -1.42.

Consider “MNGRADFREPNAEVPRPIPHIGPDYIPTEEERRVFAECNDESFWFRSVPLAATSMLITQGLISKGILSSHPKYGSIPKLILACIMGYFAGKLSYVKTCQEKFKKLENSPLGEALRSGQARRSSPPGHYYQKSKYDSSVSGQSSFVTSPAADNIEMLPHYEPIPFSSSMNESAPTGITDHIVQGPDPNLEESPKRKNITYEELRNKNRESYEVSLTQKTDPSVRPMHERVPKKEVKVNKYGDTWDE [OCIAD1]”, for which the “solubility change mitosis (log2)” value with HeLa Kyoto [1] was determined as 0.225. For the same substance, the melting temperature worked out at 55.9 °C in the data set on HeLa Kyoto [2] (cell cycle stage: G1/S) and 53.1 °C in the data set on HeLa Kyoto [2] (cell cycle stage: mitosis). Besides, the “solubility in G1/S (log2)” value in the data set on HeLa Kyoto [3] turned out to be 0.219. Moreover, the results for the thermal stability score in the data set with HeLa Kyoto [4] (setting [5]) and in the data set on HeLa Kyoto [4] (cell cycle stage: mitosis) were -1.09 and -4.47, respectively.

Turning to SRGAP2, the “solubility change mitosis (log2)” value in the data set with HeLa Kyoto [1] was 0.0509. Also, the melting temperature in the data set on HeLa Kyoto [2] (cell cycle stage: G1/S) was determined as 50 °C; with HeLa Kyoto [2] (cell cycle stage: mitosis) it was 50.5 °C. Also, the “solubility in G1/S (log2)” value with HeLa Kyoto [3] amounted to 0.0333. Besides, the thermal stability score with HeLa Kyoto [4] (setting [5]) is 0.993; in the data set on HeLa Kyoto [4] (cell cycle stage: mitosis) it was 0.737.

For the substance “MKCVFVTVGTTSFDDLIACVSAPDSLQKIESLGYNRLILQIGRGTVVPEPFSTESFTLDVYRYKDSLKEDIQKADLVISHAGAGSCLETLEKGKPLVVVINEKLMNNHQLELAKQLHKEGHLFYCTCRVLTCPGQAKSIASAPGKCQDSAALTSTAFSGLDFGLLSGYLHKQALVTATHPTCTLLFPSCHAFFPLPLTPTLYKMHKGWKNYCSQKSLNEASMDEYLGSLGLFRKLTAKDASCLFRAISEQLFCSQVHHLEIRKACVSYMRENQQTFESYVEGSFEKYLERLGDPKESAGQLEIRALSLIYNRDFILYRFPGKPPTYVTDNGYEDKILLCYSSSGHYDSVYSKQFQSSAAVCQAVLYEILYKDVFVVDEEELKTAIKLFRSGSKKNRNNAVTGSEDAHTDYKSSNQNRMEEWGACYNAENIPEGYNKGTEETKSPENPSKMPFPYKVLKALDPEIYRNVEFDVWLDSRKELQKSDYMEYAGRQYYLGDKCQVCLESEGRYYNAHIQEVGNENNSVTVFIEELAEKHVVPLANLKPVTQVMSVPAWNAMPSRKGRGYQKMPGGYVPEIVISEMDIKQQKKMFKKIRGKEVYMTMAYGKGDPLLPPRLQHSMHYGHDPPMHYSQTAGNVMSNEHFHPQHPSPRQGRGYGMPRNSSRFINRHNMPGPKVDFYPGPGKRCCQSYDNFSYRSRSFRRSHRQMSCVNKESQYGFTPGNGQMPRGLEETITFYEVEEGDETAYPTLPNHGGPSTMVPATSGYCVGRRGHSSGKQTLNLEEGNGQSENGRYHEEYLYRAEPDYETSGVYSTTASTANLSLQDRKSCSMSPQDTVTSYNYPQKMMGNIAAVAASCANNVPAPVLSNGAAANQAISTTSVSSQNAIQPLFVSPPTHGRPVIASPSYPCHSAIPHAGASLPPPPPPPPPPPPPPPPPPPPPPPPPPPALDVGETSNLQPPPPLPPPPYSCDPSGSDLPQDTKVLQYYFNLGLQCYYHSYWHSMVYVPQMQQQLHVENYPVYTEPPLVDQTVPQCYSEVRREDGIQAEASANDTFPNADSSSVPHGAVYYPVMSDPYGQPPLPGFDSCLPVVPDYSCVPPWHPVGTAYGGSSQIHGAINPGPIGCIAPSPPASHYVPQGM [ALG13]”, the “solubility change mitosis (log2)” value with HeLa Kyoto [1] worked out at 0.0555. In addition, the melting temperature in the data set with HeLa Kyoto [2] (cell cycle stage: G1/S) came out at 53.4 °C; in the data set with HeLa Kyoto [2] (cell cycle stage: mitosis), 52.2 °C. For the same substance, the “solubility in G1/S (log2)” value in the data set with HeLa Kyoto [3] worked out at 0.392. The thermal stability score with HeLa Kyoto [4] (setting [5]) was 2.01; in the data set with HeLa Kyoto [4] (cell cycle stage: mitosis), -0.34.

As to “MNFAEREGSKRYCIQTKHVAILCAVVVGVGLIVGLAVGLTRSCDSSGDGGPGTAPAPSHLPSSTASPSGPPAQDQDICPASEDESGQWKNFRLPDFVNPVHYDLHVKPLLEEDTYTGTVSISINLSAPTRYLWLHLRETRITRLPELKRPSGDQVQVRRCFEYKKQEYVVVEAEEELTPSSGDGLYLLTMEFAGWLNGSLVGFYRTTYTENGQVKSIVATDHEPTDARKSFPCFDEPNKKATYTISITHPKEYGALSNMPVAKEESVDDKWTRTTFEKSVPMSTYLVCFAVHQFDSVKRISNSGKPLTIYVQPEQKHTAEYAANITKSVFDYFEEYFAMNYSLPKLDKIAIPDFGTGAMENWGLITYRETNLLYDPKESASSNQQRVATVVAHELVHQWFGNIVTMDWWEDLWLNEGFASFFEFLGVNHAETDWQMRDQMLLEDVLPVQEDDSLMSSHPIIVTVTTPDEITSVFDGISYSKGSSILRMLEDWIKPENFQKGCQMYLEKYQFKNAKTSDFWAALEEASRLPVKEVMDTWTRQMGYPVLNVNGVKNITQKRFLLDPRANPSQPPSDLGYTWNIPVKWTEDNITSSVLFNRSEKEGITLNSSNPSGNAFLKINPDHIGFYRVNYEVATWDSIATALSLNHKTFSSADRASLIDDAFALARAQLLDYKVALNLTKYLKREENFLPWQRVISAVTYIISMFEDDKELYPMIEEYFQGQVKPIADSLGWNDAGDHVTKLLRSSVLGFACKMGDREALNNASSLFEQWLNGTVSLPVNLRLLVYRYGMQNSGNEISWNYTLEQYQKTSLAQEKEKLLYGLASVKNVTLLSRYLDLLKDTNLIKTQDVFTVIRYISYNSYGKNMAWNWIQLNWDYLVNRYTLNNRNLGRIVTIAEPFNTELQLWQMESFFAKYPQAGAGEKPREQVLETVKNNIEWLKQHRNTIREWFFNLLESG [ENPEP]”, the “solubility change mitosis (log2)” value with HeLa Kyoto [1] came out at 0.193. In addition, the melting temperature in the data set on HeLa Kyoto [2] (cell cycle stage: G1/S) amounted to 57.4 °C; in the data set on HeLa Kyoto [2] (cell cycle stage: mitosis), 55.9 °C. The “solubility in G1/S (log2)” value in the data set with HeLa Kyoto [3] is -0.159. Also, the values for the thermal stability score in the data set on HeLa Kyoto [4] (setting [5]) and in the data set on HeLa Kyoto [4] (cell cycle stage: mitosis) were -1.64 and -0.842, respectively.
